In the FLAb antibody collection:

Test: patients with anti-drug antibodies; higher = more immunogenic

Protein	patients with anti-drug antibodies
unnamed (protein) chain 1: QVQLQQSGAELVRPGTSVKVSCKASGYAFTNYLIEWVKQRPGQGLEWIGVINPGSGGTNYNEKFKGKATLTADKSSSTAYMQLSSLTSDDSAVYFCARDGPWFAYWGQGTLVTVSA chain 2: NIVMTQSPKSMSMSVGERVTLTCKASENVVTYVSWYQQKPEQSPKLLIYGASNRYTGVPDRFTGSGSATDFTLTISSVQAEDLADYHCGQGYSYPYTFGGGTKLEIK	80%
unnamed (protein) chain 1: QVQLVQSGAELKKPGSSVKVSCKASGYIFTSSWINWVKQAPGQGLEWIGRIDPSDGEVHYNQDFKDKATLTVDKSTNTAYMELSSLRSEDTAVYYCARGFLPWFADWGQGTLVTVSS chain 2: DIQMTQSPSTLSASVGDRVTITCKASENVDTYVSWYQQKPGKAPKLLIYGASNRYTGVPSRFSGSGSGTDFTLTISSLQPDDFATYYCGQSYNYPFTFGQGTKVEVK	7.8%
unnamed (protein) chain 1: QVQLVQSGSELKKPGASVKVSCKASGYTFTDNNMDWVRQAPGQGLEWMGDINTRSGGSIYNEEFQDRVIMTVDKSTDTAYMELSSLRSEDTATYHCARRKSYGYYLDEWGEGTLVTVSS chain 2: DIQMTQSPSSLSASVGDRVTITCKASRNIERQLAWYQQKPGQAPELLIYQASRKESGVPDRFSGSRYGTDFTLTISSLQPEDIATYYCQQYSDPPLTFGGGTKVEIK	3.5%
unnamed (protein) chain 1: EVQLVESGGGLVQPGGSLRLSCAASGFTFSSYNMNWVRQAPGKGLEWVSYISSSSSTIYYADSVKGRFTISRDNAKNSLSLQMNSLRDEDTAVYYCARAYYYGMDVWGQGTTVTVSS chain 2: DIQMTQSPSSVSASVGDRVTITCRASQGISGWLAWYQQKPGKAPKFLIYAASTLQSGVPSRFSGSGSGTDFTLTISSLQPEDFATYYCQQANSFPPTFGGGTKVEIK	1%
unnamed (protein) chain 1: QVQLVQSGAEVKKPGASVKVSCKASGYTFTDYYMHWVRQAPGQGLEWMGRVNPNRRGTTYNQKFEGRVTMTTDTSTSTAYMELRSLRSDDTAVYYCARANWLDYWGQGTTVTVSS chain 2: DIQMTQSPSSLSASVGDRVTITCSVSSSVSSIYLHWYQQKPGKAPKLLIYSTSNLASGVPSRFSGSGSGTDFTLTISSLQPEDFATYYCQVYSGYPLTFGGGTKVEIK	0%
unnamed (protein) chain 1: QVQLVQSGAEVKKPGASVKVSCKASGYTFTSYDINWVRQATGQGLEWMGWMNPNSGNTGYAQKFQGRVTMTRNTSISTAYMELSSLRSEDTAVYYCARDPYYYYYGMDVWGQGTTVTVSS chain 2: QSVLTQPPSVSAAPGQKVTISCSGSSSNIENNHVSWYQQLPGTAPKLLIYDNNKRPSGIPDRFSGSKSGTSATLGITGLQTGDEADYYCETWDTSLSAGRVFGGGTKLTVL	0%
unnamed (protein) chain 1: QVQLVQSGAEVKKPGASVKVSCKASGYIFSNYWIQWVRQAPGQGLEWMGEILPGSGSTEYTENFKDRVTMTRDTSTSTVYMELSSLRSEDTAVYYCARYFFGSSPNWYFDVWGQGTLVTVSS chain 2: DIQMTQSPSSLSASVGDRVTITCGASENIYGALNWYQQKPGKAPKLLIYGATNLADGVPSRFSGSGSGTDFTLTISSLQPEDFATYYCQNVLNTPLTFGQGTKVEIK	2%
unnamed (protein) chain 1: QVQLVQSGAEVKKPGSSVKVSCKASGGTFSYYWIEWVRQAPGQGLEWMGEILPGSGTTNPNEKFKGRVTITADESTSTAYMELSSLRSEDTAVYYCARADYYGSDYVKFDYWGQGTLVTVSS chain 2: DIQMTQSPSSLSASVGDRVTITCKASQHVITHVTWYQQKPGKAPKLLIYGTSYSYSGVPSRFSGSGSGTDFTLTISSLQPEDFATYYCQQFYEYPLTFGGGTKVEIK	9%
unnamed (protein) chain 1: EVQLVESGGGLVQPGGSLRLSCAASGYSFTGHWMNWVRQAPGKGLEWVGMIHPSDSETRYNQKFKDRFTISVDKSKNTLYLQMNSLRAEDTAVYYCARGIYFYGTTYFDYWGQGTLVTVSS chain 2: DIQMTQSPSSLSASVGDRVTITCRASKTISKYLAWYQQKPGKAPKLLIYSGSTLQSGVPSRFSGSGSGTDFTLTISSLQPEDFATYYCQQHNEYPLTFGQGTKVEIK	6.3%
unnamed (protein) chain 1: EVQLVESGGGLVQPGGSLRLSCAASGFTFSNYWISWVRQAPGKGLEWVAEIRSESDASATHYAEAVKGRFTISRDNAKNSLYLQMNSLRAEDTAVYYCLAYFDYGLAIQNYWGQGTLVTVSS chain 2: EIVLTQSPATLSLSPGERATLSCKASKRVTTYVSWYQQKPGQAPRLLIYGASNRYLGIPARFSGSGSGTDFTLTISSLEPEDFAVYYCSQSYNYPYTFGQGTKLEIK	1.6%
unnamed (protein) chain 1: QVQLVESGGGVVQPGRSLRLSCAASGFTFSSFGMHWVRQAPGKGLEWVAVISFDGSIKYSVDSVKGRFTISRDNSKNTLFLQMNSLRAEDTAVYYCARDRLNYYDSSGYYHYKYYGMAVWGQGTTVTVSS chain 2: QSVLTQPPSVSAAPGQKVTISCSGSSSNIGNNYVSWYQQLPGTAPKLLIYDNNKRPSGIPDRFSGSKSGTSTTLGITGLQTGDEADYYCGTWDSRLSAVVFGGGTKLTVL	2.4%
unnamed (protein) chain 1: EVQLVQSGAEVKKPGASVKVSCKASGYTLTSYGISWVRQAPGQGLEWMGWVSFYNGNTNYAQKLQGRGTMTTDPSTSTAYMELRSLRSDDTAVYYCARGYGMDVWGQGTTVTVSS chain 2: ESALTQPASVSGSPGQSITISCTGTSSDVGGYNSVSWYQQHPGKAPKLMIYEVSNRPSGVSNRFSGSKSGNTASLTISGLQAEDEADYYCNSYTSTSMVFGGGTKLTVL	0.3%
unnamed (protein) chain 1: EVQLVESGGGLVQPGGSLRLSCAASGFTFSRYWMSWVRQAPGKGLEWVANIKQDGSEKYYVDSVKGRFTISRDNAKNSLYLQMNSLRAEDTAVYYCAREGGWFGELAFDYWGQGTLVTVSS chain 2: EIVLTQSPGTLSLSPGERATLSCRASQRVSSSYLAWYQQKPGQAPRLLIYDASSRATGIPDRFSGSGSGTDFTLTISRLEPEDFAVYYCQQYGSLPWTFGQGTKVEIK	3.3%
unnamed (protein) chain 1: EVQLVESGGGLVQPGGSLRLSCAASGFFITNNYWGWVRQAPGKGLEWVGYISYSGSTSYNPSLKSRFTISRDTSKNTFYLQMNSLRAEDTAVYYCARTGSSGYFDFWGQGTLVTVSS chain 2: DIQMTQSPSSLSASVGDRVTITCRASESVDDLLHWYQQKPGKAPKLLIKYASQSISGVPSRFSGSGSGTDFTLTISSLQPEDFATYYCQQGNSLPNTFGQGTKVEIK	5%
unnamed (protein) chain 1: QVQLVESGGGVVQPGRSLRLSCAASGFTFSSYDMSWVRQAPGKGLEWVAKVSSGGGSTYYLDTVQGRFTISRDNSKNTLYLQMNSLRAEDTAVYYCARHLHGSFASWGQGTTVTVSS chain 2: EIVLTQSPATLSLSPGERATLSCQASQSISNFLHWYQQRPGQAPRLLIRYRSQSISGIPARFSGSGSGTDFTLTISSLEPEDFAVYYCQQSGSWPLTFGGGTKVEIK	0%
unnamed (protein) chain 1: EVQLVESGGGVVQPGRSLRLSCSASGFTFSGYGLSWVRQAPGKGLEWVAMISSGGSYTYYADSVKGRFAISRDNAKNTLFLQMDSLRPEDTGVYFCARHGDDPAWFAYWGQGTPVTVSS chain 2: DIQLTQSPSSLSASVGDRVTITCSVSSSISSNNLHWYQQKPGKAPKPWIYGTSNLASGVPSRFSGSGSGTDYTFTISSLQPEDIATYYCQQWSSYPYMYTFGQGTKVEIK	8.7%
unnamed (protein) chain 1: QVQLVQPGAEVKKPGTSVKLSCKASGYTFTTYWMHWVRQAPGQGLEWIGEINPTNGHTNYNQKFQGRATLTVDKSTSTAYMELSSLRSEDTAVYYCARNYVGSIFDYWGQGTLLTVSS chain 2: DIVMTQSPDSLAMSLGERVTLNCKASENVVSYVSWYQQKPGQSPKLLIYGASNRESGVPDRFSGSGSATDFTLTISSVQAEDVADYHCGQSYNYPYTFGQGTKLEIK	0%
unnamed (protein) chain 1: QVQLVQSGAEVKRPGASVKVSCKASGYTFTNDIIHWVRQAPGQRLEWMGWINAGYGNTQYSQNFQDRVSITRDTSASTAYMELISLRSEDTAVYYCAREPLWFGESSPHDYYGMDVWGQGTTVTVSS chain 2: AIQLTQSPSSLSASVGDRVTITCRASQGISSALAWYQQKPGKAPKLLIYDASSLESGVPSRFSGSGSGTDFTLTISSLQPEDFATYYCQQFNSYPLTFGGGTKVEIK	1.7%
unnamed (protein) chain 1: EVQLVESGGGLVQPGGSLRLSCAASGFDFSRYWMSWVRQAPGKGLEWIGEINPDSSTINYAPSLKDKFIISRDNAKNSLYLQMNSLRAEDTAVYYCARPDGNYWYFDVWGQGTLVTVSS chain 2: DIQMTQSPSSLSASVGDRVTITCKASQDVGIAVAWYQQKPGKVPKLLIYWASTRHTGVPDRFSGSGSGTDFTLTISSLQPEDVATYYCQQYSSYPYTFGQGTKVEIK	18.5%
